Bridge positions count the residues as written; N and C are the ends. Square brackets hold non-standard residues; d marks the D form. Ends that are not written are not given here. dPhe(F5) = N[C@H](Cc1c(F)c(F)c(F)c(F)c1F)C(=O)O; 1Nal = N[C@@H](Cc1cccc2ccccc12)C(=O)O; 2Nal = N[C@@H](Cc1ccc2ccccc2c1)C(=O)O; S5 = C=CCCC[C@](C)(N)C(=O)O; I_N = not defined here; βAla = NCCC(=O)O
What was measured:
[1] = target: equimolar RAMANK1-CSL complex (human) (UniProt P46531); experiment: SPR, preformed RAMANK1-CSL complex
[2] = target: equimolar RAMANK1-CSL complex (human) (UniProt P46531); experiment: SPR (Biacore 3000), peptide immobilised on a streptavidin chip, equimolar RAMANK1 and CSL injected; bio-nt-sdnMAML1, residues 16-45
[3] = target: GST-RAMANK1-CSL complex (human) (UniProt P46531); experiment: ALPHAscreen titration matrix, binding components in the range of 10-100 nM
[4] = target: GST-RAMANK1-CSL complex (human) (UniProt P46531); experiment: ALPHAscreen, 40 nM of all partners
[5] = target: equimolar RAMANK1-CSL complex (human) (UniProt P46531); experiment: SPR (Biacore 3000), peptide immobilised on a streptavidin chip, equimolar RAMANK1 and CSL injected; bio-sdnMAML1, residues 16-70
[6] = target: GST-RAMANK1-CSL complex (human) (UniProt P46531); experiment: ALPHAscreen competition against Bio-sdnMAML1 binding to GST-RAMANK1-CSL
[7] = target: GST-RAMANK1-CSL complex (human) (UniProt P46531); experiment: ALPHAscreen NTC competition: peptide titrated against Bio-sdnMAML1 binding to GST-RAMANK1-CSL; IC50 with 95% CI
[8] = target: NOTCH1-CSL transactivation complex in U2OS cells transfected with the truncated, constitutively activated ΔEGFΔLNR-NOTCH1 allele, P46531; experiment: cell-based or functional assay
[9] = target: equimolar RAMANK1-CSL complex (human) (UniProt P46531); experiment: SPR (Biacore 3000), peptide immobilised on a streptavidin chip, equimolar RAMANK1 and CSL injected; bio-SAHM1, stapled peptide

Molecule | IC50 [7] [nM] | further results
bio-nt-sdnMAML1 (residues 16-45), N-terminal helix of dnMAML1 (from UniProt Q92585 16-45) (peptide) | – | fold decrease in affinity against s-dnMAML1 [1]: 10 fold; Kd [2]: 400 nM
synthetic, biotinylated dnMAML1 (Bio-sdnMAML1, residues 16-70) (from UniProt Q92585 16-70) (peptide) | – | ALPHAscreen luminescent signal (maximum) [3]: 45000 c.p.s.; signal-to-noise ratio [4]: 30 fold; Kd [5]: 40 nM
unlabeled Ac-sdnMAML1 peptide (from UniProt Q92585 16-70) | – | IC50 (read off the curve) [6]: 100 nM
Ac-W[βAla]ERWRRRL[S5]WVR[S5]HHST (staple 10-14) [SAHM1-38] | 540 | –
Ac-W[βAla]ERWRRRL[S5]YCR[S5]HHST (staple 10-14) [SAHM1-47] | 460 | –
Ac-W[βAla]ERLRRRI[S5]LCR[S5]HHSTFEARY (staple 10-14) [SAHM1-28] | 560 | –
Ac-W[βAla]ERWRRRL[S5]YVR[S5]HHST (staple 10-14) [SAHM1-48] | 670 | –
Ac-W[βAla]ERWRRRI[S5]LFR[S5]HHSTCEARY (staple 10-14) [SAHM1-25 (E21-Y41 scaffold, L23W/C30F double mutant)] | 290 | –
Ac-W[βAla]ERWRRRI[S5]LFR[S5]HHSTCEARY (staple 10-14) [SAHM1-25 (E21-Y41 scaffold, L23W/C30F double mutant), Q92585 21-41] | – | EC50, NOTCH1-driven CSL-luciferase dual reporter in U2OS cells [8]: 10000 nM; fold lower IC50 than SAHM1, NOTCH1 reporter gene assay [8]: 2 fold
Ac-W[βAla]ERWRRRI[S5]FCR[S5]HHSTCEARY (staple 10-14; cysteine pairing not given here) [SAHM1-26] | 850 | –
Ac-W[βAla]ERWRRRL[S5]WCR[S5]HHST[dPhe(F5)]EARY (staple 10-14) [SAHM1-43] | 780 | –
Ac-W[βAla]ERLRRRI[S5]LCR[S5]HHSTCEARY (staple 10-14; cysteine pairing not given here) [SAHM1-24 (stapled peptide of the E21-Y41 scaffold)] | 1120 | –
Ac-W[βAla]ERWRRRI[S5]FCR[S5]HHST (staple 10-14) [SAHM1-22] | 690 | –
Ac-W[βAla]ERWRRRI[S5]WCR[S5]HHSTCEARY (staple 10-14; cysteine pairing not given here) [SAHM1-27 (E21-Y41 scaffold, L23W/L29W double mutant)] | 200 | –
Ac-W[βAla]ERWRRRI[S5]YFR[S5]HHST[dPhe(F5)]EAR[1Nal] (staple 10-14) | – | EC50, NOTCH1-driven CSL-luciferase dual reporter in U2OS cells [8]: 5000 nM; fold lower IC50 than SAHM1, NOTCH1 reporter gene assay [8]: 4 fold
Ac-W[βAla]ERLRRRI[S5]LCR[S5]HHST (staple 10-14) [AcW-SAHM1 (stapled MAML1 E21-T36 peptide with N-acetyl tryptophan cap)] | 1700 | –
Ac-W[βAla]ERWRRRL[S5]WFR[S5]HHST (staple 10-14) [SAHM1-39] | 900 | –
ERLRRRI[S5]LCR[S5]HHST (peptide, UniProt Q92585 21-36, looked up, staple 8-12; not fully specified (N-terminus); also: biotin label, linker not described) [Bio-SAHM1 (biotinylated stapled MAML1 E21-T36 peptide)] | – | Kd [9]: 100 nM
Ac-W[βAla]ERWRRRL[S5]LFR[S5]HHST[dPhe(F5)]EARY (staple 10-14) [SAHM1-35] | 1200 | –

Second part, led by results:

IC50 [7] [nM] | Molecule | further results
610 | Ac-W[βAla]ERWRRRL[S5]LCR[S5]HHST[I_N]EARY (staple 10-14; reading uncertain) [SAHM1-52] | –
360 | Ac-W[βAla]ERWRRRL[S5]LCR[S5]HHSTCEAR[1Nal] (staple 10-14; cysteine pairing not given here) [SAHM1-51] | –
370 | Ac-W[βAla]ERWRRRL[S5]WCR[S5]HHSTCEARYEAVSPERL (staple 10-14; cysteine pairing not given here) [SAHM1-81] | –
440 | Ac-W[βAla]ERWRRRL[S5]YFR[S5]HHSTCEAR[1Nal] (staple 10-14) [SAHM1-61] | –
410 | Ac-W[βAla]ERWRRRL[S5]LCR[S5]HHSTCEAR[2Nal] (staple 10-14; cysteine pairing not given here) [SAHM1-50] | –
6500 | Ac-W[βAla]ELER[S5]HTF[S5]LHQR (staple 7-11) [SAHM5] | –
270 | Ac-W[βAla]ERWRRRL[S5]YCR[S5]HHSTCEARYEAVSPERL (staple 10-14; cysteine pairing not given here) [SAHM1-76] | –
3700 | Ac-W[βAla]RELRREI[S5]LCR[S5]HHST (staple 10-14) [SAHM1-D1] | –
250 | Ac-W[βAla]ERWRRRI[S5]YCR[S5]HHST (staple 10-14) [SAHM1-55] | –
450 | Ac-W[βAla]ERWRRRL[S5]YFR[S5]HHST[dPhe(F5)]EARY (staple 10-14) [SAHM1-60] | –
360 | Ac-W[βAla]ERWRRRL[S5]YVR[S5]HHSTCEARYEAVSPERL (staple 10-14) [SAHM1-80] | –
340 | Ac-W[βAla]ERWRRRL[S5]YCR[S5]HHSTCEARY (staple 10-14; cysteine pairing not given here) [SAHM1-59] | –
220 | Ac-W[βAla]ERWRRRI[S5]YFR[S5]HHST (staple 10-14) [SAHM1-56 (E21-T36 scaffold with L23W, L29Y and C30F)] | –
320 | Ac-W[βAla]ERWRRRI[S5]YFR[S5]HHST[dPhe(F5)]EAR[1Nal] (staple 10-14) [SAHM1-62 (E21-Y41 scaffold with L23W, L29Y, C30F, C37 D-pentafluoro-Phe and Y41 1-naphthylalanine)] | –
